Results taken from patent publication US20200190176A1 (VERITAS THERAPEUTICS, published 2020).

How the values were obtained:
recombinant mouse FGL2 = target: T1, recombinant mouse FGL2 (mouse, UniProt P12804 27-432, limits assumed); assay: SPR, Biacore 3000, 25 C, antibody captured by goat anti-mouse Fc, FGL2 as analyte
T1 construct: native mouse FGL2 is said to exist as an oligomer; also called murine recombinant FGL2
T1 sequence (looked up): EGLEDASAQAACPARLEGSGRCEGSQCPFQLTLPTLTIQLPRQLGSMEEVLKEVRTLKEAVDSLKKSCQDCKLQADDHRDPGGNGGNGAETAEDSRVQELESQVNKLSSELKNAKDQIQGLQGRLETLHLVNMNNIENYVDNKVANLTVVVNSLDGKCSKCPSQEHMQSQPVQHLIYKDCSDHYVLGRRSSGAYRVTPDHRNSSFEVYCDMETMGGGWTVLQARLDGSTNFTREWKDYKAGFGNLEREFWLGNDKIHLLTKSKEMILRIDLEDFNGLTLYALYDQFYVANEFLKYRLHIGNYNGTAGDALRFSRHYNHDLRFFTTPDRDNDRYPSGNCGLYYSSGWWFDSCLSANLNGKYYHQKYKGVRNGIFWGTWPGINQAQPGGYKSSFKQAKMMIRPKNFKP
Method: (§1) The response difference (Resp. Diff.) for each experiment was plotted against time (s). Resp. Diff. is the ligand-immobilized flow cell minus the control flow cell. A) Human FGL2. For the full kinetic analysis, SPR was performed using 0.625 nM, 2.5 nM, 5 nM, and 10 nM recombinant human FGL2. B) Mouse FGL2. For this analysis, SPR was performed using 10 nM recombinant mouse FGL2.
(§2) Binding experiments were performed on Biacore 3000 at 25° C. Flow cell 2 was coated with 1,000 RU of the goat anti-mouse Fc capture Ab by direct immobilization using EDC/NHS amine coupling method and the unoccupied sites were blocked with 1M ethanolamine. 9D8 or 3H9 was captured at an RU as indicated. Either recombinant human or mouse FGL2 was flowed over the chip and binding to 9D8 or 3H9 was monitored in real time. From the observed kon and koff, KD was determined.

recombinant human FGL2 = target: T2, recombinant human FGL2 (human, UniProt Q14314 30-439, limits assumed); assay: as above
T2 construct: also called hFGL2; FGL2/fibroleukin
T2 sequence (looked up): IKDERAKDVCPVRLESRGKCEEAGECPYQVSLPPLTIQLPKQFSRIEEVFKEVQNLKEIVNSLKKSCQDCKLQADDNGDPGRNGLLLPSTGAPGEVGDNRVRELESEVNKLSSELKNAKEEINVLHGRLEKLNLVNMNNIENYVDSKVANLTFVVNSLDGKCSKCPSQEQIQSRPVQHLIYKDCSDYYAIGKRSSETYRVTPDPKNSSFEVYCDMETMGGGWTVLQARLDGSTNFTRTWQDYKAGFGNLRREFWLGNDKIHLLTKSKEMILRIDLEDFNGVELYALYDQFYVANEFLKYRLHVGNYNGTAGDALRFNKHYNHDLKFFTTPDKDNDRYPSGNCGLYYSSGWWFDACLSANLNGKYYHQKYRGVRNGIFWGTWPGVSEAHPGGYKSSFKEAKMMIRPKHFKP
Method: as §1, §2

B1: anti-FGL2 monoclonal antibody 9D8 (antibody, mouse IgG1, kappa, V domains shown)
VH: EVQLQQSGAELVKPGASVQLSCTASGFNIKDTYIHWVKQRPEQGLEWIGRIDPEDGNTKYDPKFQAKATITADTFSNTAYLQLSSLTSEDTAVYYCARSYGNAYWGQGTLVTVSA
VL: DIVLTQSPASLAVSLGQRATISCRASQSVSTSRYTYMHWYQQKPGQPPKLLIKYASNLDSGVPARFSGSGSGTDFTLNIHPVQEEDTATYYCQHSWEIWAFGGGTKLEIKR
notes: Mouse hybridoma antibody purified from ascites; isotype-matched control was IgG1; here built without leader from variable region plus constant region; also called clone 9D8; antibody to FGL2 (9D8)
Q: What does the source list for B1?
A: Kd (recombinant mouse FGL2): 1.8 nM; koff (recombinant mouse FGL2): 0.00334 s⁻¹; kon (recombinant mouse FGL2): 1.85e+06 M⁻¹ s⁻¹; Kd (recombinant human FGL2): 0.857 nM; koff (recombinant human FGL2): 0.0019 s⁻¹; kon (recombinant human FGL2): 2.22e+06 M⁻¹ s⁻¹

B2: anti-FGL2 monoclonal antibody 3H9 (antibody, mouse IgG2b, kappa, V domains shown)
VH: EVQLQQSGPELVKSGASVKISCKTSGYTFTEYTIHWVKQSHGESLEWVGGINPKNGGISYNQKFKGKATLTVDKSSSTAYMELRSLTSEDSAVYFCARWGIGNYVGFPYWGQGTLVTVSA
VL: SIVMTQTPKFLLVSAGDRVTMTCKASLSVNNDVAWYQQKPGQSPKLLISYASSRYTGVPDRFTGSGYGTDFTFTISSVQAEDLAVYFCQQDYSSPLTFGAGTKLELKR
notes: Mouse hybridoma antibody generated in the same manner as 9D8; here built without leader
Q: What does the source list for B2?
A: Kd (recombinant mouse FGL2): 0.103 nM; koff (recombinant mouse FGL2): 0.000189 s⁻¹; kon (recombinant mouse FGL2): 1.84e+06 M⁻¹ s⁻¹; Kd (recombinant human FGL2): 0.286 nM; koff (recombinant human FGL2): 0.000884 s⁻¹; kon (recombinant human FGL2): 3.09e+06 M⁻¹ s⁻¹
